According to article PMC3466776 (Biochemistry, 2012):
No end group written: not given here.

What was measured:
Assay in all cases: stopped-flow fluorescence
[1] = molecular target: C-lobe mutant of calmodulin (CaM34) (rat, UniProt P0DP29 1-149, D93 to alanine | D129 to alanine)
[2] = molecular target: wild-type calmodulin (His-CaM) (rat, UniProt P0DP29 1-149)
[3] = molecular target: N-lobe mutant of calmodulin (CaM12) (rat, UniProt P0DP29 1-149, D20 to alanine | D56 to alanine)

| Binder | binding result [1] | binding result [2] | binding result [3] |
| --- | --- | --- | --- |
| YSLAAVVLGLVQSLNRQRQKQLLNE-NH2 [AC8-C2b peptide] | binds | binds | – |
| IKPAKRMKFKTVCYLLVQLMHCRKMFKA (C-terminal amide) [AC1-C1b peptide] | – | binds | binds |
| GSRPQRLLWQTAVRHITEQRFIHGH-NH2 [AC8-Nt peptide] | – | binds | binds |
